The values below come from PMC8998617 (2022).

The assay has as its target recombinant human full-length Tau (2N4R, 441 aa), non-phosphorylated (human, UniProt P10636-8 1-441). Briefly: SPR.

B1: Nup98-FG/FS (full F/S mutant of Nup98-FG) (domain or fragment)
chain: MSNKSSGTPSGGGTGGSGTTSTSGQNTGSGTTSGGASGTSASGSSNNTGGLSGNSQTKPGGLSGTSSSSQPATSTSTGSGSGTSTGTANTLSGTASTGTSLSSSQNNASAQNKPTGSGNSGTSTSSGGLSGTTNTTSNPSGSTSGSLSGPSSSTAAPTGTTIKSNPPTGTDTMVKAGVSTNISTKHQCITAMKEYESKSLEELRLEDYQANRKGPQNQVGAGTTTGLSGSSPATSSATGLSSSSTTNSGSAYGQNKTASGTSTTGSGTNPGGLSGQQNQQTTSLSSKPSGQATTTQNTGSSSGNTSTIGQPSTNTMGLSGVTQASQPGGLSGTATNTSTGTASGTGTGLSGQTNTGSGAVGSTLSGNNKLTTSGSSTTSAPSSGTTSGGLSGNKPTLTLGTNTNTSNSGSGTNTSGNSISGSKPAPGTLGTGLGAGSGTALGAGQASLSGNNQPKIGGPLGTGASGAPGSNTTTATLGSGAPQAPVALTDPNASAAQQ
For the molecule B1, the Kd worked out at 360 nM.
